Measurements reported in PMC8809517, “Cofactor-independent RNA editing by a synthetic S-type PPR protein”.
Residue numbers refer to the chain shown, from its start.

Tests used:
Experiment in all cases: high-throughput RNA pulldown from lysate on Ni-NTA beads; HRP: 50 mM Tris pH 8, 150 mM NaCl, 1 mM beta-mercaptoethanol, 50 ug/ml BSA, 3 ug/ml yeast RNA, 0.5% heparin; ITC and FP: Tris pH 8, 200 mM KCl, 5% glycerol; MST: 50 mM Tris pH 8, 200 mM NaCl, 1 mM DTT, BSA, heparin, 0.05% Tween 20
Settings in all cases: tags: N-terminal His-eGFP
[1] = molecular target: T1, GFP-9S library array, motif 4 ND N98W;D124T (synthetic construct, N98W;D124T)
T1 chain: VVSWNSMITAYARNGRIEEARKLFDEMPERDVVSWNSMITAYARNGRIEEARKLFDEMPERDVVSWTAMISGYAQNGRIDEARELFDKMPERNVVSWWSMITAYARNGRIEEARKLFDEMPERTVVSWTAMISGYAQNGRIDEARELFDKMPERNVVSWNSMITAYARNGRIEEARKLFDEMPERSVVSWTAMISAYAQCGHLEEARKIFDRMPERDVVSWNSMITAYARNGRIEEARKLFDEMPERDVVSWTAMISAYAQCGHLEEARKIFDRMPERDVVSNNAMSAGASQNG

[2] = molecular target: T2, GFP-9S library array, motif 4 ND N98I;D124T (synthetic construct, N98I;D124T)
T2 chain: T1 chain with W98I

[3] = molecular target: T3, GFP-9S library array, motif 4 ND N98H;D124G (synthetic construct, N98H;D124G)
T3 chain: T1 chain with W98H, T124G

[4] = molecular target: T4, GFP-9S library array, motif 4 ND N98L;D124P (synthetic construct, N98L;D124P)
T4 chain: T1 chain with W98L, T124P

[5] = molecular target: T5, GFP-9S library array, motif 4 ND N98A;D124L (synthetic construct, N98A;D124L)
T5 chain: T1 chain with W98A, T124L

Row | Binder | Kd ([1]; label: 5' Cy5) | Kd ([2]; label: 5' Cy5) | Kd ([3]; label: 5' Cy5) | Kd ([4]; label: 5' Cy5) | Kd ([5]; label: 5' Cy5) | Kd ([1]; label: 5' IRDye 800CW) | Kd ([2]; label: 5' IRDye 800CW) | Kd ([3]; label: 5' IRDye 800CW) | Kd ([4]; label: 5' IRDye 800CW) | Kd ([5]; label: 5' IRDye 800CW)
1 | AUUACACGUGA (ssRNA) [Cy5-rpoA] | 38.5 nM | 141 nM | 101 nM | 97.7 nM | 129 nM | – | – | – | – | –
2 | AUUAGACGUGA (ssRNA) [Cy5-rpoA-G] | 50.4 nM | 145 nM | 37.1 nM | 114 nM | 134 nM | – | – | – | – | –
3 | AUUAAACGUGA (ssRNA) [IR-rpoA-A] | – | – | – | – | – | 76.1 nM | 158 nM | 61.3 nM | 213 nM | 272 nM
4 | AUUAUACGUGA (ssRNA) [IR-rpoA-U] | – | – | – | – | – | 59.1 nM | 59.1 nM | 38.7 nM | 145 nM | 255 nM
